Data taken from paper PMC7702011 (2020).

Target: Recombinant NPTN polypeptide (UniProt Q9Y639 29-398)
Test: MST

Sequence of Recombinant NPTN polypeptide (Q9Y639 29-339): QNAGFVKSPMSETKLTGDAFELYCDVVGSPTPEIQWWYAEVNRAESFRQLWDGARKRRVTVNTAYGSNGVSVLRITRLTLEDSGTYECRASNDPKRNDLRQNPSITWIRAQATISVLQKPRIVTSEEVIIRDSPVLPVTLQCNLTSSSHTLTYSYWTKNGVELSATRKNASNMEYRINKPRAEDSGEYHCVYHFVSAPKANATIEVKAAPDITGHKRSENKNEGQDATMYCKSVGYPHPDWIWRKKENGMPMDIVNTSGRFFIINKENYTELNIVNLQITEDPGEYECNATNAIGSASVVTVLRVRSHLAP

Kd: 104 nM
B1: Recombinant MANF polypeptide, labeled with Alexa 647 (ligand)
chain: LRPGDCEVCISYLGRFYQDLKDRDVTFSPATIENELIKFCREARGKENRLCYYIGATDDAATKIINEVSKPLAHHIPVEKICEKLKKKDSQICELKYDKQIDLSTVDLKKLRVKELKKILDDWGETCKGCAEKSDYIRKINELMPKYAPKAASARTDL
modifications: fluorescently labeled with Alexa 647
